Assays:
[1] = molecular target: rat endothelin receptor (rat); test: displacement of [125I-Tyr13]endothelin-1 by unlabelled peptide on COS-7 cells transfected with prETR-7
[2] = molecular target: rat endothelin receptor (rat); test: cell-based or functional assay

endothelin-2 (from UniProt P20800 49-69) (peptide)
binding affinity [1]: 2 nM
increase of calcium concentration in cytoplasm (fura-2), EC50 [2]: 20 pM
